Test results published in patent publication US20180305414A1.
Substitutions are numbered along the chain they refer to. Each block holds one molecule with its values, some of them ahead of it.

What was measured:
[1] = molecular target: human IgG (available from the Chemo-Sero-Therapeutic Research Institute) (human); assay: binding capacity; Capto L resin, human IgG, acid elution, A280
[2] = molecular target: Fab prepared by papain treatment of human IgG (human); assay: binding capacity; Capto L resin, 20 mg/mL human Fab, acid elution, A280
[3] = molecular target: human IgG (available from the Chemo-Sero-Therapeutic Research Institute) (human); assay: binding capacity; binder immobilised on agarose gel, human IgG, acid elution, A280
[4] = molecular target: human IgG (available from the Chemo-Sero-Therapeutic Research Institute) (human); assay: binding capacity; binder immobilised on agarose gel, 40 mg/mL human IgG, acid elution, A280
[5] = molecular target: human IgG (available from the Chemo-Sero-Therapeutic Research Institute) (human); assay: binding capacity; binder immobilised on agarose gel, human IgG
[6] = molecular target: Fab prepared by papain treatment of human IgG (human); assay: binding capacity against Capto L
[7] = molecular target: human IgG (available from the Chemo-Sero-Therapeutic Research Institute) (human); assay: binding capacity against Capto L
[8] = molecular target: Fab prepared by papain treatment of human IgG (human); assay: binding capacity; binder immobilised on agarose gel, 20 mg/mL human Fab, acid elution, A280

IgG Binding Capacity [1]: 43.6 mg/mL gel
Fab Binding Capacity [2]: 30.9 mg/mL gel
Molecule: Capto L (GE Healthcare KK) having a tetramer (Protein L) with the native sequence immobilized thereon

IgG Binding Capacity [3]: 57 mg/mL gel
IgG Binding Capacity [4]: 57.4 mg/mL gel
B1: chimeric protein PL-014 containing immunoglobulin-binding domain 4 of Protein L (designed binder)
chain: MAQHDEAGLALETPEEPKEEVTIKVNLIFADGKTQTAEFKGTFEEATAEAYRYADLLAKVNGEYTADLEDGGYTINIKFAGALPSKSKKILKEAKKLNKAQAPKKKK

IgG Binding Capacity [3]: 56.9 mg/mL gel
B2: modified product PL-035 of immunoglobulin-binding domain 4 (designed binder)
chain: B1 chain with K18R, K24R

increase of binding capacity against PL-014 [5]: 11%
IgG Binding Capacity [3]: 63.6 mg/mL gel
B3: modified product PL-038 of immunoglobulin-binding domain 4 (designed binder)
chain: B1 chain with T13R, K18R, K24R, K33R, K40R, K59R, K78R

increase of binding capacity against PL-014 [5]: 5%
IgG Binding Capacity [3]: 60.1 mg/mL gel
B4: modified product PL-028 of immunoglobulin-binding domain 4 (designed binder)
chain: B1 chain with T13K, K40R, K59R, K78R

IgG Binding Capacity [3]: 59.2 mg/mL gel
B5: modified product PL-047 of immunoglobulin-binding domain 4 (designed binder)
chain: B1 chain with T13K, K24R, K33R

IgG Binding Capacity [3]: 57.9 mg/mL gel
B6: modified product PL-048 of immunoglobulin-binding domain 4 (designed binder)
chain: B1 chain with T13K, K24R, K33R, K40R

IgG Binding Capacity [3]: 61.6 mg/mL gel
B7: modified product PL-056 of immunoglobulin-binding domain 4 (designed binder)
chain: B1 chain with T13K, K18R, K24R, K33A

IgG Binding Capacity [3]: 56.1 mg/mL gel
B8: modified product PL-059 of immunoglobulin-binding domain 4 (designed binder)
chain: B1 chain with T13K, K18R, K40R

IgG Binding Capacity [3]: 59.1 mg/mL gel
B9: modified product PL-036 of immunoglobulin-binding domain 4 (designed binder)
chain: B1 chain with T13K, K18R, K24R, K33R

IgG Binding Capacity [3]: 59.7 mg/mL gel
B10: modified product PL-046 of immunoglobulin-binding domain 4 (designed binder)
chain: B1 chain with T13K, K18R, K33R

IgG Binding Capacity [3]: 55.9 mg/mL gel
B11: modified product PL-053 of immunoglobulin-binding domain 4 (designed binder)
chain: B1 chain with T13K, K18R, K24R, K33E

IgG Binding Capacity [3]: 58.5 mg/mL gel
B12: modified product PL-052 of immunoglobulin-binding domain 4 (designed binder)
chain: B1 chain with T13K, K18R, K24R, K33H

IgG Binding Capacity [4]: 53.3 mg/mL gel
B13: chimeric protein PL-022 containing immunoglobulin-binding domain 2 of Protein L (designed binder)
chain: B1 chain with T13K, E49K, R52A, V60E, Y73N

IgG Binding Capacity [3]: 59 mg/mL gel
B14: modified product PL-050 of immunoglobulin-binding domain 4 (designed binder)
chain: B1 chain with T13K, K18R, K24R, K33T

IgG Binding Capacity [3]: 57.6 mg/mL gel
B15: modified product PL-060 of immunoglobulin-binding domain 4 (designed binder)
chain: B1 chain with T13K, K18T, K24R, K33R

IgG Binding Capacity [3]: 59.7 mg/mL gel
B16: modified product PL-049 of immunoglobulin-binding domain 4 (designed binder)
chain: B1 chain with T13K, K18R, K24R, K33R, K40R

IgG Binding Capacity [3]: 60.6 mg/mL gel
B17: modified product PL-045 of immunoglobulin-binding domain 4 (designed binder)
chain: B1 chain with T13R, K33R

IgG Binding Capacity [3]: 58.4 mg/mL gel
B18: modified product PL-054 of immunoglobulin-binding domain 4 (designed binder)
chain: B1 chain with T13K, K18R, K24R, K33Q

IgG Binding Capacity [3]: 57.3 mg/mL gel
B19: modified product PL-051 of immunoglobulin-binding domain 4 (designed binder)
chain: B1 chain with T13K, K18R, K24R, K33L

IgG Binding Capacity [3]: 58.6 mg/mL gel
B20: modified product PL-027 of immunoglobulin-binding domain 4 (designed binder)
chain: B1 chain with K18R, K24R, K33R

IgG Binding Capacity [3]: 58.9 mg/mL gel
B21: modified product PL-044 of immunoglobulin-binding domain 4 (designed binder)
chain: B1 chain with T13K, K33R

IgG Binding Capacity [3]: 57.3 mg/mL gel
B22: modified product PL-055 of immunoglobulin-binding domain 4 (designed binder)
chain: B1 chain with T13K, K18R, K24R, K33F

increase of binding capacity against PL-014 [5]: 11%
IgG Binding Capacity [3]: 63.4 mg/mL gel
B23: modified product PL-024 of immunoglobulin-binding domain 4 (designed binder)
chain: B1 chain with K18R, K24R, K33R, K40R, K59R, K78R

IgG Binding Capacity [3]: 59.3 mg/mL gel
B24: modified product PL-043 of immunoglobulin-binding domain 4 (designed binder)
chain: B1 chain with T13R

IgG Binding Capacity [3]: 55.6 mg/mL gel
B25: modified product PL-057 of immunoglobulin-binding domain 4 (designed binder)
chain: B1 chain with T13K, K18R, K24R, K40R

IgG Binding Capacity [3]: 57.8 mg/mL gel
B26: modified product PL-026 of immunoglobulin-binding domain 4 (designed binder)
chain: B1 chain with T13K, K18R, K24R

IgG Binding Capacity [3]: 58.6 mg/mL gel
B27: modified product PL-058 of immunoglobulin-binding domain 4 (designed binder)
chain: B1 chain with T13K, K18R, K33R, K40R

IgG Binding Capacity [3]: 52.2 mg/mL gel
IgG Binding Capacity [4]: 52.2 mg/mL gel
B28: chimeric protein PL-023 containing immunoglobulin-binding domain 3 of Protein L (designed binder)
chain: B1 chain with T34I, E49K, R52A, D55N, V60E, Y73N

IgG Binding Capacity [3]: 59.8 mg/mL gel
B29: modified product PL-061 of immunoglobulin-binding domain 3 (designed binder)
chain: B1 chain with K18R, K24R, K33R, T34I, K40R, E49K, R52A, D55N, V60E, Y73N

amount of bound Fab fragment relative to Capto L [6]: 2.4 times
amount of bound IgG relative to Capto L [7]: 2.2 times
human IgG binding capacity relative to PL-024 [5]: 144%
IgG Binding Capacity [3]: 91.6 mg/mL gel
Fab Binding Capacity [8]: 72.4 mg/mL gel
B30: tetrameric multidomain polypeptide PL-424 (four linked modified domains of PL-024) (designed binder)
chain: AQHDEAGLALETPEEPREEVTIRVNLIFADGRTQTAEFRGTFEEATAEAYRYADLLARVNGEYTADLEDGGYTINIRFAGALETPEEPREEVTIRVNLIFADGRTQTAEFRGTFEEATAEAYRYADLLARVNGEYTADLEDGGYTINIRFAGALETPEEPREEVTIRVNLIFADGRTQTAEFRGTFEEATAEAYRYADLLARVNGEYTADLEDGGYTINIRFAGALETPEEPREEVTIRVNLIFADGRTQTAEFRGTFEEATAEAYRYADLLARVNGEYTADLEDGGYTINIRFAGALPSKSKKILKEAKKLNKAQAPKKKK

IgG Binding Capacity [4]: 45.3 mg/mL gel
B31: chimeric protein PL-021 containing immunoglobulin-binding domain 1 of Protein L (designed binder)
chain: MAQHDEAGLALETPEPEEEVTIKANLIFADGSTQNAEFKGTFAKAVSDAYAYADALKKDNGEYTVDVADKGLTLNIKFAGALPSKSKKILKEAKKLNKAQAPKKKK

amount of bound Fab fragment relative to Capto L [6]: 2.4 times
amount of bound IgG relative to Capto L [7]: 2.2 times
human IgG binding capacity relative to PL-024 [5]: 151%
IgG Binding Capacity [3]: 95.8 mg/mL gel
Fab Binding Capacity [8]: 75.9 mg/mL gel
B32: hexameric multidomain polypeptide PL-624 (six linked modified domains of PL-024) (designed binder)
chain: AQHDEAGLALETPEEPREEVTIRVNLIFADGRTQTAEFRGTFEEATAEAYRYADLLARVNGEYTADLEDGGYTINIRFAGALETPEEPREEVTIRVNLIFADGRTQTAEFRGTFEEATAEAYRYADLLARVNGEYTADLEDGGYTINIRFAGALETPEEPREEVTIRVNLIFADGRTQTAEFRGTFEEATAEAYRYADLLARVNGEYTADLEDGGYTINIRFAGALETPEEPREEVTIRVNLIFADGRTQTAEFRGTFEEATAEAYRYADLLARVNGEYTADLEDGGYTINIRFAGALETPEEPREEVTIRVNLIFADGRTQTAEFRGTFEEATAEAYRYADLLARVNGEYTADLEDGGYTINIRFAGALETPEEPREEVTIRVNLIFADGRTQTAEFRGTFEEATAEAYRYADLLARVNGEYTADLEDGGYTINIRFAGALPSKSKKILKEAKKLNKAQAPKKKK
